These results are taken from publication PMC7423924, “A fluorogenic cyclic peptide for imaging and quantification of drug-induced apoptosis” (Nature Communications, 2020).

Several values for one entry are separate records, joined by “and”; a condition that tells them apart may be missing. Identical values can stand only once.

This assay has as its system primary airway epithelial cells. Description: Flow cytometry staining before and after induction of apoptosis, epithelial. It is filed as cell-based, human. Conditions: single replicates, listed as Ann V. As for the experimental part: Fig. 2 Apo-15 binds to apoptotic cells of different origin in multiple environments. a Representative fluorescence confocal microscopy images (from three independent experiments) human apoptotic (yellow arrows) and viable (white arrows) cells from different lineages: BL-2 (lymphoid), neutrophils (myeloid), and primary airway epithelial cells (epithelial). Cells were incubated with Apo-15 (100 nM, green), AF647-Annexin V (5 nM, red), and Hoechst 33342 (7 μM, blue) for 10 min and imaged under a fluorescence confocal microscope (λexc.: 405, 488, 633 nm: λem.: 450, 525, 670 nm). Scale bars: 10 µm. b Divalent cation-independent binding of Apo-15 to apoptotic cells of different origin (top plots: lymphoid cells, bottom plots: myeloid cells). Mixtures of apoptotic (highlighted in green dots) and viable cells (highlighted in black dots) were stained with AF647-Annexin V (25 nM) and Apo-15 (100 nM) in the presence of 2 mM CaCl2 (left) or 2.5 mM EDTA (right). Representative histograms showing Apo-15 binding (x-axis) vs AF647-Annexin V binding (y-axis) acquired on 5L LSR flow cytometer (n = 5). c Cells were sorted on their Apo-15 positivity (green populations in panel b) or negativity (black populations in panel b). Gating strategy in Supplementary Fig. 7. Morphological analysis (four independent images from two independent experiments) of cytocentrifuge preparations of Apo-15-positive and Apo-15-negative cells under brightfield microscopy (scale bar: 10 µm). d Quantification of fluorescence staining of neutrophils (myeloid, n ≥ 5), BL-2 cells (lymphoid, n ≥ 3) and primary airway epithelial cells (epithelial, n = 5) before and after induction of apoptosis and upon treatment with Apo-15 and AF647-Annexin V. Data acquired on 5 L LSR flow cytometer and presented as mean values ± SEM. P values obtained from two-tailed t tests. Source data (in d) are provided as a Source data file. […]
All apopeptides were reconstituted at 5 mM in DMSO. […] Fluorescence emission was measured on a 5 L LSR flow cytometer (BD). […]
For orientation: A flow cytometer gives signals particle by particle.

B1: Annexin V: fluorescently-labeled (AF647) annexin V, PS-binding protein (protein, UniProt P08758 2-320, looked up)
Annexin A5: AQVLRGTVTDFPGFDERADAETLRKAMKGLGTDEESILTLLTSRSNAQRQEISAAFKTLFGRDLLDDLKSELTGKFEKLIVALMKPSRLYDAYELKHALKGAGTNEKVLTEIIASRTPEELRAIKQVYEEEYGSSLEDDVVGDTSGYYQRMLVVLLQANRDPDAGIDEAQVEQDAQALFQAGELKWGTDEEKFITIFGTRSVSHLRKVFDKYMTISGFQIEETIDRETSGNLEQLLLAVVKSIRSIPAYLAETLYYAMKGAGTDDHTLIRVMVSRSEIDLFNIRKEFRKNFATSLYSMIKGDTSGDYKKALLLLCGEDD
modifications: AF647 label
B1: the “Stained cells (flow cytometry)” value by setting is: (epithelial cells untreated (UNT)) 7.0% and 6.2% and 7.1% and 5.9% and 13.0%; (epithelial cells, staurosporine (ST, 1 µM 6 h)) 14.1% and 17.9% and 25.5% and 29.1% and 22.0%; (epithelial cells, staurosporine, EDTA) 0.024% and 0.1% and 0.37% and 3.0% and 2.0%.
